Patent US20070282095

Legend:
[1] = molecular target: blood coagulation factor 13 (Fibrogammin P) (UniProt P00488)
fibrinogen = fibrinogen (UniProt P02671)
fibrinogen, sequence (P02671 20-629, chain 1 of 3): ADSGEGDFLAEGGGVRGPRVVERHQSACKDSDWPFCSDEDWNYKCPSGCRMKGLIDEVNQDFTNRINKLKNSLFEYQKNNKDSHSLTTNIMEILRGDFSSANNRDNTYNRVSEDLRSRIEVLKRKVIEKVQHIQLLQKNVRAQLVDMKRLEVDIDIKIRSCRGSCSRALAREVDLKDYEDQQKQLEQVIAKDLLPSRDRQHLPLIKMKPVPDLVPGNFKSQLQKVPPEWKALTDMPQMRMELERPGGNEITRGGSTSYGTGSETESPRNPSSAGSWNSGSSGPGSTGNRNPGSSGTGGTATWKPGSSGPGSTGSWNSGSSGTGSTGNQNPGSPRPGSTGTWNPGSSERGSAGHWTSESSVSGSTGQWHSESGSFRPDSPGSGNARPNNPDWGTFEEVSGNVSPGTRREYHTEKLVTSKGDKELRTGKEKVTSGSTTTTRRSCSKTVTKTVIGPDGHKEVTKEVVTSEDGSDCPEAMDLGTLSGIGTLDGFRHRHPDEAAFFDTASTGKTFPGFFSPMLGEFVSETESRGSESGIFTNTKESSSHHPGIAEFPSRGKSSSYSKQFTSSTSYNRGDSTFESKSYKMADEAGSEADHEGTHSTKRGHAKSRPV
fibrinogen, sequence (chain, as listed by the source, chain 2 of 3): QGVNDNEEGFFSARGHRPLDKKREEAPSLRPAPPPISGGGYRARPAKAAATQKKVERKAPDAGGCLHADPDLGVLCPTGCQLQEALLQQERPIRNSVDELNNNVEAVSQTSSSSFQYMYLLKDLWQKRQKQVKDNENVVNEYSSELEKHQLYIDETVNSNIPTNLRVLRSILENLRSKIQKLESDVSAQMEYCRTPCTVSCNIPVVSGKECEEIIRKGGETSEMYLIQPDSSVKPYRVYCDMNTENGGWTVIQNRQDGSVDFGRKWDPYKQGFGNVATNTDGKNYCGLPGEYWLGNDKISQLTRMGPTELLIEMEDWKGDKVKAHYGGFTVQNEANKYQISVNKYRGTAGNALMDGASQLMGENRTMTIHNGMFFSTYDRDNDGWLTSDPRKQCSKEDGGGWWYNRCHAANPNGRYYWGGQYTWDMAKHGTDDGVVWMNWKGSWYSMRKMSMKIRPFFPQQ
fibrinogen, sequence (chain, as listed by the source, chain 3 of 3): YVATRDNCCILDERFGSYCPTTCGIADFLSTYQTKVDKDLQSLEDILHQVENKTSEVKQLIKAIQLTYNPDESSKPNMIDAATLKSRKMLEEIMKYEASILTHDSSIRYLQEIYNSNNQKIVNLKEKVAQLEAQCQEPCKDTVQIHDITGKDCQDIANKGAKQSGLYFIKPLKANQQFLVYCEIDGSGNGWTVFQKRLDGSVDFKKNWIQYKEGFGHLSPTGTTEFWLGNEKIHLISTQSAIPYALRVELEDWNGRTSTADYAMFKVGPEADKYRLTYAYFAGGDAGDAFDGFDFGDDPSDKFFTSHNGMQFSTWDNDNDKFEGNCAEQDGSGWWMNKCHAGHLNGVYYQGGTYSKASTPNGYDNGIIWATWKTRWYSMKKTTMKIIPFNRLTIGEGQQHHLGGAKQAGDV

blood coagulation factor 13 (Fibrogammin P), sequence (P00488 2-732, chain 1 of 2): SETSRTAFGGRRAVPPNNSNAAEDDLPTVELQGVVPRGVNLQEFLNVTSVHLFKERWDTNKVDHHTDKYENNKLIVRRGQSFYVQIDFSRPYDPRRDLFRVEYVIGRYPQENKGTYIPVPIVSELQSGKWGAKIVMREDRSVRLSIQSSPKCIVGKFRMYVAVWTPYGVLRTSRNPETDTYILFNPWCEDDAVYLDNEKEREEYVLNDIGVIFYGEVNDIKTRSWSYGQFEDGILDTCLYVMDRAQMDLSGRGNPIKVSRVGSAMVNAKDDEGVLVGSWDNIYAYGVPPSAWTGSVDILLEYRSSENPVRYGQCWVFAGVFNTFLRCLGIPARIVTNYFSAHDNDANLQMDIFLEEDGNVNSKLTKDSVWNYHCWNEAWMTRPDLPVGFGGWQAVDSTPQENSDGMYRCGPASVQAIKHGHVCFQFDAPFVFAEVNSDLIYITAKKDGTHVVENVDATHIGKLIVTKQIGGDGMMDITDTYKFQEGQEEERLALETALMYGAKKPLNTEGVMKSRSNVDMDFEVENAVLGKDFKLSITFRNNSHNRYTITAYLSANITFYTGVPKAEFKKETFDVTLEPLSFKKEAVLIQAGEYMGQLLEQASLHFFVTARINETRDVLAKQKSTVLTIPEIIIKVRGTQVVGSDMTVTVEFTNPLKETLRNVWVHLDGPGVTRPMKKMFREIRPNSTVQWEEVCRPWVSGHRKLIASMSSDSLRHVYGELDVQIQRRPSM
blood coagulation factor 13 (Fibrogammin P), sequence (chain, as listed by the source, chain 2 of 2): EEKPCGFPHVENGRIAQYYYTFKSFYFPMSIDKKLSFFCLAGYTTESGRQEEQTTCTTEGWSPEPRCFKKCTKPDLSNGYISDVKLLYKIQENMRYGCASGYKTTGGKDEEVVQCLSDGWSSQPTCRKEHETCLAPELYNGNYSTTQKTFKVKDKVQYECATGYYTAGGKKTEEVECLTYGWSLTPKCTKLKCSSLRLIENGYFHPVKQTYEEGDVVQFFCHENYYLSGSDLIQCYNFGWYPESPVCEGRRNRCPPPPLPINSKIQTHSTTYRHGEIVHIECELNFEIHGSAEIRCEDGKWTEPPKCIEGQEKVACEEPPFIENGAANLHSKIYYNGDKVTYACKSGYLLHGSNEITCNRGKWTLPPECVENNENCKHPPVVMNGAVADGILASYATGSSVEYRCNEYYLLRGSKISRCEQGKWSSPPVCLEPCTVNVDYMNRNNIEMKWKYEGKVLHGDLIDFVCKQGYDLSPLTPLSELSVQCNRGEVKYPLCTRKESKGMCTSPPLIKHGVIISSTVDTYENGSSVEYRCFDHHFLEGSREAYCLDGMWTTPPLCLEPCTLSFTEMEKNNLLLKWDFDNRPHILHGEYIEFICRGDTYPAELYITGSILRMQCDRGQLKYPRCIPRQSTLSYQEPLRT

Substance: 203A205A99N thrombin (glycine 203 to alanine, serine 205 to alanine, aspartic acid 99 to asparagine in B chain)
- cleavage of FXIII A chain, SDS-PAGE (method B), 37°C 3 hours [1]: no band of an A chain-activated product of FXIII was observed

Substance: 203A205A thrombin (glycine 203 to alanine, serine 205 to alanine in B chain)
- cleavage of FXIII A chain, SDS-PAGE (method B), 37°C [1]: No band of A chain-activated product of FXIII was observed even in lane 6 which was obtained after 3 hour-incubation

Substance: 203A205G thrombin (glycine at position 203 in B chain substituted by alanine, serine at position 205 substituted by glycine)
- clot formation from Fbgn (method C), 37°C 3 hours (fibrinogen): no clot formation was observed
- cleavage of FXIII A chain, SDS-PAGE (method B), 37°C [1]: No band of an A chain-activated product of FXIII was observed in the sample (lane 6) which was obtained after 3-hour incubation

Substance: 203A thrombin (glycine at position 203 in B chain substituted by alanine)
- clot formation from Fbgn (method C), 37°C 3 hours (fibrinogen): a clot was formed after three hours
- cleavage of FXIII A chain, SDS-PAGE (method B), 37°C [1]: The A chain of FXIII was observed to provide a cleaved product 30 minutes later, and more than half of the A chain was cleaved after three hours

Substance: 205A43S thrombin (serine 205 to alanine, histidine 43 to serine in B chain)
- cleavage of FXIII A chain, SDS-PAGE (method B), 37°C 3 hours [1]: no band of A chain-activated product of FXIII was observed

Substance: 205A99N thrombin (serine 205 to alanine, aspartic acid 99 to asparagine in B chain)
- cleavage of FXIII A chain, SDS-PAGE (method B), 37°C 3 hours [1]: no band of an A chain-activated product of FXIII was observed

Substance: 205A thrombin (serine at position 205 in B chain substituted by alanine)
- cleavage of FXIII A chain, SDS-PAGE (method B), 37°C [1]: Even 3 hours later, no A chain of activated FXIII was observed as shown in lane 8

Substance: 205G43A thrombin (serine 205 to glycine, histidine 43 to alanine in B chain)
- cleavage of FXIII A chain, SDS-PAGE (method B), 37°C 3 hours [1]: no band of an A chain-activated product of FXIII was observed

Substance: 205T thrombin (serine at position 205 in B chain substituted by threonine)
- cleavage of FXIII A chain, SDS-PAGE (method B), 37°C 3 hours [1]: A chains of almost all FXIII were activated in a similar manner as that of the wild-type thrombin, and bands of cleaved FXIII were observed
